Assay results published in article PMC5150538, “Structural basis of myelin-associated glycoprotein adhesion and signalling” (Nature Communications, 2016).
Changes are numbered by the printed parent chain. Names and notes keep the numbering of the source.

B1: Myelin-associated glycoprotein (MAG, Siglec4a): N406Q (protein)
parent chain: MIFLATLPLFWIMISASRGGHWGAWMPSTISAFEGTCVSIPCRFDFPDELRPAVVHGVWYFNSPYPKNYPPVVFKSRTQVVHESFQGRSRLLGDLGLRNCTLLLSTLSPELGGKYYFRGDLGGYNQYTFSEHSVLDIVNTPNIVVPPEVVAGTEVEVSCMVPDNCPELRPELSWLGHEGLGEPTVLGRLREDEGTWVQVSLLHFVPTREANGHRLGCQAAFPNTTLQFEGYASLDVKYPPVIVEMNSSVEAIEGSHVSLLCGADSNPPPLLTWMRDGMVLREAVAKSLYLDLEEVTPGEDGVYACLAENAYGQDNRTVELSVMYAPWKPTVNGTVVAVEGETVSILCSTQSNPDPILTIFKEKQILATVIYESQLQLELPAVTPEDDGEYWCVAENQYGQRATAFNLSVEFAPIILLESHCAAARDTVQCLCVVKSNPEPSVAFELPSRNVTVNETEREFVYSERSGLLLTSILTIRGQAQAPPRVICTSRNLYGTQSLELPFQGAHRLMWAKIGPVGAVVAFAILIAIVCYITQTRRKKNVTESSSFSGGDNPHVLYSPEFRISGAPDKYESEKQRLGSERRLLGLRGESPELDLSYSHSDLGKRPTKDSYTLTEELAEYAEIRVK
B2: Myelin-associated glycoprotein (MAG, Siglec4a): Endo-Hf (protein)
parent chain: B1 parent chain
B3: MAG1–5 wt glycosylated (full extracellular segment of mouse myelin-associated glycoprotein) (domain or fragment, UniProt P20917 20-508, looked up)
chain: GHWGAWMPSTISAFEGTCVSIPCRFDFPDELRPAVVHGVWYFNSPYPKNYPPVVFKSRTQVVHESFQGRSRLLGDLGLRNCTLLLSTLSPELGGKYYFRGDLGGYNQYTFSEHSVLDIVNTPNIVVPPEVVAGTEVEVSCMVPDNCPELRPELSWLGHEGLGEPTVLGRLREDEGTWVQVSLLHFVPTREANGHRLGCQAAFPNTTLQFEGYASLDVKYPPVIVEMNSSVEAIEGSHVSLLCGADSNPPPLLTWMRDGMVLREAVAKSLYLDLEEVTPGEDGVYACLAENAYGQDNRTVELSVMYAPWKPTVNGTVVAVEGETVSILCSTQSNPDPILTIFKEKQILATVIYESQLQLELPAVTPEDDGEYWCVAENQYGQRATAFNLSVEFAPIILLESHCAAARDTVQCLCVVKSNPEPSVAFELPSRNVTVNETEREFVYSERSGLLLTSILTIRGQAQAPPRVICTSRNLYGTQSLELPFQGAHR
modifications: N-linked glycans (made in GnTI- cells); C-mannosylation on W22
notes: Myelin-associated glycoprotein (MAG), mouse, Ig domains 1-5, residues 20-508 (UniProt numbering, starts after the signal peptide); template mouse S-MAG cDNA; Vector pUPE107.03 with a cystatin secretion signal peptide and a C-terminal His6-tag; also called wt MAG1–5; MAG full ectodomain; source: HEK293 GnTI- EBNA1 cells in suspension, transient, secreted; purified (Ni-NTA, SEC)
B4: MAG1–5 N406Q deglycosylated (domain or fragment, mouse, UniProt P20917 20-508, looked up)
chain: B3 chain with N387Q
modifications: N-linked glycans trimmed down to single N-Acetylglucosamines by Endo-Hf
notes: Myelin-associated glycoprotein (MAG), mouse, Ig domains 1-5, residues 20-508 (UniProt numbering), with N406Q; also called deglycosylated MAG1–5 N406Q; source: HEK293 GnTI- EBNA1 cells in suspension, transient, secreted; purified (Ni-NTA, SEC); deglycosylated with Endo-Hf
B5: MAG1–5 wt deglycosylated (domain or fragment, mouse, UniProt P20917 20-508, looked up)
chain: B3 chain
modifications: N-linked glycans trimmed down to single N-Acetylglucosamines by Endo-Hf; C-mannosylation on W22
notes: Myelin-associated glycoprotein (MAG), mouse, Ig domains 1-5, residues 20-508 (UniProt numbering, starts after the signal peptide); template mouse S-MAG cDNA; Same construct as m1 after Endo-Hf treatment; also called deglycosylated MAG1–5; deglycosylated wt MAG1–5; source: HEK293 GnTI- EBNA1 cells in suspension, transient, secreted; purified (Ni-NTA, SEC); deglycosylated with Endo-Hf overnight at …
B6: MAG1–5 N406Q glycosylated (domain or fragment, mouse, UniProt P20917 20-508, looked up)
chain: B3 chain with N387Q
modifications: N-linked glycans (made in GnTI- cells), lacks the N-linked glycan on residue 406
notes: Myelin-associated glycoprotein (MAG), mouse, Ig domains 1-5, residues 20-508 (UniProt numbering), with N406Q; also called N406Q mutant; source: HEK293 GnTI- EBNA1 cells in suspension, transient, secreted; purified (Ni-NTA, SEC)

Experiments:
SAXS = conditions: glycan lost; control: glycosylated wt MAG1–5
[1] = size exclusion chromatography; conditions: glycan lost; control: wt and other MAG constructs
[2] = sedimentation equilibrium AUC, monomer-dimer fit; conditions: glycan lost; control: glycosylated wt MAG1–5
[3] = molecular target: the molecule itself; assay: SAXS; ESRF BM29, SEC buffer (150 mM NaCl, 20 mM HEPES pH 7.5), 20 °C (277 K for deglycosylated MAG1–5 N406Q), single concentration of 33-52 μM for each sample; monomer to dimer
[4] = molecular target: the molecule itself; assay: AUC; sedimentation equilibrium, SEC buffer (150 mM NaCl, 20 mM HEPES pH 7.5), 20 °C, 7,500, 14,000 and 20,000 r.p.m., global analysis of several concentrations, speeds and wavelengths; monomer to dimer
[5] = molecular target: the molecule itself; assay: SEC; Superdex200 Hiload 16/60, 150 mM NaCl, 20 mM HEPES pH 7.5

Row | Protein | oligomerisation, other: Rg (SAXS) | Kd [4] | stoichiometry N [4] | also measured
1 | B1 | increases, 7.3 vs 6.8 |  |  | oligomerisation [1]: increases
2 | B2 | increases, 7.3 vs 6.8 |  |  | oligomerisation, KD [2]: increases, 167 vs 382
3 | B3 |  | 382 µM | 2 | fraction of dimer (OLIGOMER fit, monomer:dimer ratio at 52 μM) [3]: 0.28 fraction
4 | B4 |  |  |  | binding result [3]: binds
5 | B5 |  | 167 µM | 2 | 
6 | B6 |  |  |  | binding result [5]: binds
